From the supplement of paper PMC12042874 come the findings set out here.

A short description of the data set: amyloid nucleation score (Sup35N fusion, yeast selection) (log enrichment); library NNK1; higher = more nucleation; inactive = no reads after selection. In short, it runs like this: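 Nucleation score is defined as the DiMSum log enrichment of output over input reads, with centring on the mode score of non-aggregating sequences. A minimum of 100 input reads was required for each sequence. Reads came from Illumina sequencing of plasmid inserts from psi-negative yeast expressing Sup35N fused to peptides of 20 random codons, induced with 100 μM copper sulfate for 24 hours and grown 7 days at 30°C on medium lacking adenine and uracil.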

± gives the uncertainty stated by the source.

HYTFKDCSSPLSWEPQPLFP yielded an amyloid nucleation score of -0.32 ± 0.83. Under NWNCICFLDPISRDTLYPQ stands 8.489 ± 0.046. As for ASSVHPRYFLNMTSSGVRKS, the amyloid nucleation score entry was “inactive”.

In turn, DASIIPYMNMFIMLTSLA displayed an amyloid nucleation score of -0.889 ± 1.7.

For AMQGACGFISGGFSVARVFV, the amyloid nucleation score is 0.296 ± 0.25.

Consider GWGLA, for which the amyloid nucleation score result was “inactive”. Under FIVTYSNTIRYSMPSKLPWQ stands 3.26 ± 0.077; under GFRFW, 2.96 ± 0.11. With HPLRLYRKSISINVVLSSCL the figure was 0.733 ± 0.88.

Substance EFVGVGNIVPFTTSWLIMGR returned an amyloid nucleation score of 0.271 ± 0.2.

Turning to FIRASWCSRIYIKFVN, the amyloid nucleation score was found to be 0.587 ± 0.43. As to ASGVWRQ, the amyloid nucleation score was -0.47 ± 0.65. The substance DYKVTRPVDLVFDFGGIVYT showed an amyloid nucleation score of 0.714 ± 0.22. For the substance RDSITITVNCT, the amyloid nucleation score worked out at 2.44 ± 0.078. As to PLAVVVYDNHRRMGHHVRHG, the amyloid nucleation score is 0.807 ± 0.63. With EEFFMLRVDWIEEANQCKRE the figure was 0.221 ± 0.47. Turning to DETWLSLQVNLLLFYSRMDM, the amyloid nucleation score was -0.153 ± 0.66. On to AIVTSGNRE, for which the amyloid nucleation score was -0.015 ± 0.51. With VVQGCIYYCHNVWYLDVFSF the figure was 4.62 ± 0.089; with CDSFVSFMPNFNFFR, 5.03 ± 0.056; with NSIYHYIVNTFYLNFMGWIE, 1.25 ± 0.79. In the case of LSKVVFGLWFCT, the amyloid nucleation score came out at 0.299 ± 0.34. Regarding ARFRYVESSRQMSMNVVCLT, the amyloid nucleation score is 0.194 ± 0.38.

FHSSGFVVYMLIVRGSPSMR registered an amyloid nucleation score of 0.218 ± 0.27. In turn, VYFIRIHLLFRHRTGGICNT had an amyloid nucleation score of 1.06 ± 0.72.

Regarding NDRPMMEVGMDPTPAGVLRE, the amyloid nucleation score turned out to be 0.276 ± 0.49. For the substance TNWAVKGWAVECRRHSGPNT, the amyloid nucleation score was 1.45 ± 0.79. With DAEFRHDSGYEVHHQKLVFF, the amyloid nucleation score came to 2.91 ± 0.19. For the substance HVSAWWLTSNV, the amyloid nucleation score is -0.205 ± 0.37. QFGWFWFLNYALQDFDN: the amyloid nucleation score is -0.696 ± 0.75.

Consider VAVRTPMSVCSVLLGSGSGL, for which the amyloid nucleation score was -0.162 ± 1.1.

Substance VMILNLIVDTRLRVSRHLHV returned an amyloid nucleation score of 2.88 ± 0.28.

In the case of KLREFAVLTLESGSFSVYCW, the amyloid nucleation score is -1.14 ± 1.2. With TCWVGYYVCW the figure was -0.336 ± 0.53. Take LSGERNVMCSVWACLGRDYR: the amyloid nucleation score was determined as 8.102 ± 0.047. In the case of NYFSQKWFTTGRTPRMMDMW, the amyloid nucleation score is -0.007 ± 0.32.

With SRVSNCISLVMYKAKLCSIR, the amyloid nucleation score amounted to 0.644 ± 0.5.

IIWIRAVPLMTRNEGVCECG gave an amyloid nucleation score of -0.982 ± 1.8. NFCFTVFLEVNAVKMRIYF registered an amyloid nucleation score of -0.798 ± 1.1. Substance RWFDYDESESVKSVHLNLVR showed an amyloid nucleation score of -1.37 ± 0.89.

LRARMCYRAPLRFR had an amyloid nucleation score of -0.257 ± 1.7. In turn, PCTPYLSTYVPLNEK had an amyloid nucleation score of -0.017 ± 0.31. Regarding SISWVWAAPIRAI, the amyloid nucleation score is -1.59 ± 2.4. With HLSVMMGFGFRTFNMIVMVC the figure was 1.05 ± 0.26; with PMSLPTYLRIPRFVLLAWAE, -0.034 ± 0.39; with TIWFAF, -0.128 ± 0.64. Regarding EYVVRYSCMWRE, the amyloid nucleation score came out at 0.485 ± 1.2. In the case of GNVRYAPYVVGIKLIRANSC, the amyloid nucleation score was -0.381 ± 0.81. With RSDISASHRSVGLLNSHRTD the figure was -0.58 ± 1.5. NVRGSWVIMCYFTYVWMLGR: the amyloid nucleation score is 0.017 ± 0.35. VRDMHSHTLGYCRDGMYYFK returned an amyloid nucleation score of -0.403 ± 0.84. Turning to SRIAMS, the amyloid nucleation score was found to be 0.368 ± 1. Substance SWMCSPRACCLLTFNFECMC showed an amyloid nucleation score of -0.635 ± 0.5.

Substance PVGWGNTACSLRCTGHVSYV yielded an amyloid nucleation score of -0.604 ± 1.7. In turn, RVMFACF gave an amyloid nucleation score of 0.15 ± 0.37. Under PFINVLSICLLIWALVPVDS stands “inactive”; under WIAFERPAYVDSWHLTRNRP, 0.109 ± 0.24.

Turning to AICWPVILSTDLTQTYLAWT, the amyloid nucleation score is -0.247 ± 0.3. For VYITVFMIAYMLLSDTDHE, the amyloid nucleation score was found to be 0.377 ± 0.31. For the substance NRRVCEVR, the amyloid nucleation score is -0.148 ± 1.1. For FLEFWPSVTVYSRCFLVFGR, the amyloid nucleation score is -1.06 ± 1.1. For YHGRRVPRDVTNQRTMAQCD, the amyloid nucleation score was 3.66 ± 0.087. IRSFPTV registered an amyloid nucleation score of 0.075 ± 0.47. Take VALDIGFSWALSRLWLKRHF: the amyloid nucleation score stood at 0.095 ± 0.29. In turn, GLYFGLQLTGVS displayed an amyloid nucleation score of 0.04 ± 0.35. In the case of SPRYQSVWEFVSFQDCTSRW, the amyloid nucleation score turned out to be 0.118 ± 1.2. Under LFRFNWLDSNPV stands “inactive”; under GIRVFPMCNFG, “inactive”. For the substance FSNNLHLWAITSVLNIQTSN, the amyloid nucleation score was 6.245 ± 0.053. In the case of YSYFWVAWF, the amyloid nucleation score is 0.329 ± 0.4. In the case of YQYGAWNSANVSSNN, the amyloid nucleation score came to 1.19 ± 0.57. With VFVTGLCSEDVTIYSTM the figure was -2.44 ± 2.4.

As to FALIRN, the amyloid nucleation score is -0.368 ± 1.7. In turn, QKAAVEQGLSRFGEGVTP had an amyloid nucleation score of 0.886 ± 0.66. Under RPFRLYECCCDGELFLN stands -0.997 ± 0.51; under LYWSQIEVVNPQTTEGLNRD, -0.528 ± 0.61; under CMPCSDFGSLWVAMDMNCFR, 4.1 ± 0.085. Take FESTNVLPISGTSAGSV: the amyloid nucleation score turned out to be 1.18 ± 0.74.

With HAHVQCGESE, the amyloid nucleation score turned out to be 0.092 ± 0.73. Substance PNMARHPFYEDMCFTVDVTN displayed an amyloid nucleation score of -1 ± 0.44. SNFSG returned an amyloid nucleation score of 0.446 ± 0.66.

Consider ILRTFVSSCVDVGTYSTTKC, for which the amyloid nucleation score is -1.52 ± 2.4. On to MTSAGSAWVYSYFYLGLIRK, for which the amyloid nucleation score was -0.143 ± 0.53. Turning to FSFISKIIESCYGDFLVGDA, the amyloid nucleation score is -1.21 ± 0.61. The substance HIYNDSVRSFWIFQ had an amyloid nucleation score of 6.606 ± 0.05.

The substance DVFYVILNVSLVCSVPFLSA had an amyloid nucleation score of -0.179 ± 0.72. STFGPCEVLVVQVDGPAYHT displayed an amyloid nucleation score of -0.37 ± 0.55. The substance RILYMYWVFMVLFMTPRCLD registered an amyloid nucleation score of -0.099 ± 0.48. As for AFIFMSTATDDLFFAINL, the amyloid nucleation score was -0.139 ± 0.35.

VKSGS came in with an amyloid nucleation score of 0.21 ± 0.24. Under LTRVWSVTCVCSFGRPYK stands 2.13 ± 0.27; under FMNGLGPAVAYIMGYTYVSM, 6.369 ± 0.063.

Substance WSGIIELC had an amyloid nucleation score of 1.74 ± 0.78. NISRAVHTRMGGYMSPTWLK came in with an amyloid nucleation score of 0.833 ± 0.5. Take NGNDDLSQTTEVKGYVGATL: the amyloid nucleation score was -0.3 ± 0.37. Turning to PIDAPISQLGLCMFGYQEGL, the amyloid nucleation score is -0.999 ± 1.3. Regarding SIANVSFW, the amyloid nucleation score came to 1.59 ± 0.18. GKVIQHG yielded an amyloid nucleation score of -0.579 ± 1.7. Turning to SVCTGRYPSRAHGEGASNTC, the amyloid nucleation score came out at 0.08 ± 0.66. CRQVFLFLVVPKYYNRMLST gave an amyloid nucleation score of -0.251 ± 0.31. Consider SGGSLVFVCYGRNF, for which the amyloid nucleation score is -1.35 ± 1.1. With INNGIQ, the amyloid nucleation score was -0.047 ± 0.96. As for ILEEYYLCIWLEVAWHICHA, the amyloid nucleation score was -0.571 ± 0.8. Under WTAGWL stands -0.065 ± 0.44; under MVGSAVVFVLENLGVTGSWG, 0.072 ± 0.84; under NLWGSFTCYLFVIGNHWFGI, 6.96 ± 0.084.

For SVWNILLIV, the amyloid nucleation score worked out at 0.665 ± 0.34. Turning to QDRENLNCIHY, the amyloid nucleation score amounted to 1.24 ± 0.31. The substance DFDNEGLWCS registered an amyloid nucleation score of -0.217 ± 0.42. As to FCLMMEVGSVLRNLVPVSFR, the amyloid nucleation score was -0.122 ± 1.4. In the case of CSYPVECSGSMYVSEKTSIF, the amyloid nucleation score entry is “inactive”. With QWCSRRDMCFRSSVILCLWR the figure was -0.035 ± 0.75; with EALNPVVLPSTN, 1.55 ± 0.14; with MLRMLAVQCFSSCIARLD, 2.05 ± 0.3. For QVHIERDVERPYMFLGTAWG, the amyloid nucleation score was -0.285 ± 0.34. Substance AYINLTPHGPRVCRFNWLAS gave an amyloid nucleation score of -0.094 ± 0.7. In the case of SINHNGPDQLKGVPFSCSCV, the amyloid nucleation score result is “inactive”. Consider TNPYSWNLYCGFLNTDWVV, for which the amyloid nucleation score worked out at 0.787 ± 0.85. Under MLHYSARGFRRHK stands 0.326 ± 1.2; under SIRSFMIVL, 3.49 ± 0.13. Consider LCLGLHSNLSLSMLRLLVLE, for which the amyloid nucleation score is -0.482 ± 1.4. With CSENT the figure was -0.875 ± 0.52; with VSRVNYNVFSVGISKSVCD, 0.201 ± 0.85.

KCRKASMSSPILDLCTRMRC came in with an amyloid nucleation score of -1.18 ± 1.9.

YSVLNINLQFRSSLLGAFYP came in with an amyloid nucleation score of 3.75 ± 0.063. For KFIVMIE, the amyloid nucleation score was 0.386 ± 0.22. Under TQVWKPLHKTSLHYSDREVS stands -0.111 ± 0.38; under CMAFVFKTCFVFRCNVGKCA, 0.527 ± 0.28. With SSRYFLFLAHTHWLCTMTCP the figure was -0.064 ± 0.8; with HCILHKANFRGFTHSSYEVG, 4.68 ± 0.1; with QLTPTLCDRSRCCPGGLFVY, 0.631 ± 0.58. With FIVDLWCMLFNSILAGCVVV the figure was -0.008 ± 0.21; with MGNIVTLHFSHVGHRYSKWV, “inactive”; with WMFMNLVGVMFDGHGPGGSA, 1.66 ± 0.28. Turning to GVATPPLRANSLEG, the amyloid nucleation score entry is “inactive”. In the case of HSSNAAFCYAVTIYLQVLLV, the amyloid nucleation score was determined as 0.837 ± 0.66.

On to FGSARGHSGY, for which the amyloid nucleation score worked out at 1.52 ± 0.18. Turning to YNVSQLVLLNVFTCK, the amyloid nucleation score is 7.459 ± 0.044.

Regarding ADNFLFWHVIEYKENLDHAR, the amyloid nucleation score is -1.32 ± 1.1. As for IFSIRFTLCGWPLLCHIMLL, the amyloid nucleation score is -0.302 ± 0.31.
